Measurements taken from PMC7333892, “Identification of a PGXPP degron motif in dishevelled and structural basis for its binding to the E3 ligase KLHL12” (Open Biology, 2020).
Entries after “also recorded” stand apart in the source; their conditions may differ. One block for each molecule: values may come before it. Where no end group is shown, it is not given here. The star is where a group is joined. FITC = O=C1OC2(c3ccc(O)cc3Oc3cc(O)ccc32)c2ccc(NC(=S)*)cc21

Experiments:
DVL1 = DVL1 stabilization by MLN4924 in HEK293T cells co-transfected with KLHL12; format: cell-based; details: western blot
Procedure: (§1) We further investigated whether the ‘PGGPP' motif regulates the KLHL12-dependent degradation of DVL1. WT and mutant DVL1 constructs were therefore transfected into HEK293T cells in the presence or absence of full-length KLHL12. […] By contrast, the levels of the DVL1 mutants were unchanged by KLHL12 co-expression.
(§2) Full-length Flag-KLHL12 and HA-DVL1 constructs were transfected into HEK293T cells at 60% confluency with polyethylenimine. 40 h after transfection, cells were treated with cycloheximide (CHX) for 1 h or MLN4924 for 4 h and then harvested and lysed. Protein levels were analysed by Western blotting (anti-Flag antibody, Sigma-Aldrich, F1804; RRID:AB_262044 and anti-HA antibody, Biolegend, 901501; RRID:AB_2565006).

KLHL12 Kelch domain = molecular target: T1, KLHL12 Kelch domain (Homo sapiens, UniProt Q53G59); assay: Fluorescence polarization peptide binding to KLHL12; details: N-terminal FITC-labelled peptide 40 nM, 50 mM HEPES pH 7.5, 300 mM NaCl, 0.5 mM TCEP, 0.01% Triton-X, mean, n = 3
T1 construct: Human KLHL12 Kelch domain (Uniprot Q53G59-1, residues 268–567); His6 (N); made in house; host or cells: E. coli BL21(DE3)-R3-pRARE, vector pNIC28-Bsa4 (Addgene_38908)
T1 sequence (Q53G59 268-567): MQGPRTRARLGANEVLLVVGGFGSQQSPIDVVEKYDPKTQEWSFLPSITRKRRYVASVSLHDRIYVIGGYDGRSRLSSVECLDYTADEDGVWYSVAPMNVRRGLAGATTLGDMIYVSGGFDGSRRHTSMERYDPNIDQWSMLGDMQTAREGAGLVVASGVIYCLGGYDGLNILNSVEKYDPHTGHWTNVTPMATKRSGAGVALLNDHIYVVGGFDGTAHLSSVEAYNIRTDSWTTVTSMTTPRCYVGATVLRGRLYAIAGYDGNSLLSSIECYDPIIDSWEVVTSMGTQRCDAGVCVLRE
Procedure: Human KLHL12 Kelch domain (Uniprot Q53G59-1, residues 268–567) and KLHL7 Kelch domain (Uniprot Q8IXQ5-1, residues 283–586) were expressed from the vector pNIC28-Bsa4 in BL21(DE3)-R3-pRARE cells and purified by nickel affinity and size exclusion chromatography as described previously. Both plasmids are deposited in addgene (RRID:Addgene_38908 and RRID:Addgene_39023, respectively).
Fluorescence polarization assays were performed in 384-well plates using a Synergy 2 microplate reader (BioTek) with excitation and emission wavelengths of 485 nm and 528 nm, respectively. Peptides were synthesized, N-terminally labelled with FITC and purified by Tufts University Core Services (Boston, MA). Binding assays were performed in 10 µl volume at a constant labelled peptide concentration of 40 nM and indicated Kelch domain protein concentrations in a buffer containing 50 mM HEPES, pH 7.5, 300 mM NaCl, 0.5 mM TCEP and 0.01% Triton-X. Binding data were corrected for background of the free labelled peptides (no protein). For KD determination, data were fitted to a hyperbolic function using Sigma Plot software (Systat Software, San Jose CA). KD values represent mean ± S.E. (n = 3).

[1] = molecular target: T2, Human KLHL12 Kelch domain (residues 268-567) (human, UniProt Q53G59-1 268-567); assay: peptide or protein array; initial DVL1 SPOT array: 20-mer peptides on cellulose membrane, incubated with 0.4 µM His6-tagged Kelch domain protein in PBS for 1 h at 4°C, bound protein detected with HRP-conjugated anti-His antibody; details: both partners purified
T2 construct: KLHL12 Kelch domain, human, Uniprot Q53G59-1, residues 268-567; the structure traces residues 279-567; The His6 tag is kept in the SPOT arrays (detected with anti-His antibody); Expressed from the vector pNIC28-Bsa4; also called 6 x His-KLHL12 Kelch domain; His6-tagged KLHL12 Kelch domain
T2 sequence (looked up): T1 sequence (Q53G59 268-567)

[2] = molecular target: T2, Human KLHL12 Kelch domain (residues …); assay: fluorescence polarisation; 40 nM FITC-labelled peptide, Kelch domain protein titrated; 50 mM HEPES pH 7.5, 300 mM NaCl, 0.5 mM TCEP, 0.01% Triton-X; hyperbolic fit, n = 3; details: both partners purified
[3] = test system: full-length Flag-tagged KLHL12; assay: Co-immunoprecipitation of HA-DVL1 variants with Flag-KLHL12 in HEK293T cells; format: cell-based; details: MLN4924 4 h, anti-Flag immunoprecipitation, western blot
Procedure: To validate the identified ‘PGGPP' sequence as degron motif for DVL1 recruitment and degradation by the KLHL12, we tested the binding, ubiquitination and stability of DVL1 in HEK293T cells. Two variants of full-length HA-tagged DVL1 were prepared in which the 657-‘PPGGPP' motif was either mutated to ‘AAAAAA' or deleted. Immunoprecipitation of the complex using full-length Flag-tagged KLHL12 was performed in cells treated with the neddylation inhibitor MLN4924 to ensure the stability of all transfected DVL1 variants. […] To confirm that the interaction promoted DVL1 ubiquitination, we next transfected Flag-tagged KLHL12 and HA-DVL1 variants into cells pretreated with the proteasome inhibitor MG132. DVL1 was immunoprecipitated by anti-HA agarose and its ubiquitination status probed by immunoblotting for the presence of high molecular weight poly-ubiquitin conjugates. A marked reduction in the ubiquitination of the two DVL1 mutants was observed compared to wild-type consistent with the importance of the ‘PGGPP' motif for KLHL12 recruitment (figure 5b). […]
Full-length DVL1 variants (Uniprot O14640-1) and KLHL12 were subcloned into a pcDNA3 vector, with N-terminal HA tag and Flag tag, respectively. […] Results were analysed using western blotting (Anti-Flag antibody, Sigma-Aldrich, F1804; RRID:AB_262044; Anti-HA antibody, Biolegend, 901501; RRID:AB_2565006).

full-length KLHL12 = assay: Stability assay of DVL1 variants with or without KLHL12 in HEK293T cells; format: cell-based; details: KLHL12 co-expression versus DVL1 alone, cycloheximide 1 h, western blot, GAPDH loading control
Procedure: as §1, §2

KLHL12 = details: parallel study, ref [36] Zhao et al.; cited from earlier work
Excerpt: The omitted proline position is substituted by a glycine or alanine in pa ...

Molecule: NS(=O)(=O)OC[C@@H]1C[C@@H](n2ccc3c(N[C@H]4CCc5ccccc54)ncnc32)C[C@@H]1O [MLN4924]
stability of DVL1 WT on MLN4924 (DVL1; HEK293T cells co-transfected with DVL1 WT and KLHL12, MLN4924 4 h): stabilized DVL1 WT; also recorded: rescued the stability of DVL1 WT
stability of DVL1 mutants on MLN4924 (DVL1; HEK293T cells co-transfected with DVL1 mutants and KLHL12, MLN4924 4 h): not DVL1 mutants

Kd (KLHL12 Kelch domain): 22.3 µM
Molecule: CC(C)C[C@H](NC(=O)[C@H](CCC(=O)O)NC(=O)[C@H](CCCNC(=N)N)NC(=O)[C@@H](NC(=O)[C@@H]1CCCN1C(=O)[C@@H]1CCCN1C(=O)CNC(=O)CNC(=O)[C@@H]1CCCN1C(=O)[C@@H]1CCCN1C(=O)CNC(=O)CNC(=O)[C@@H](NC(=O)[C@@H](NC(=O)[C@@H](NC(=O)[C@H](Cc1ccc(O)cc1)NC(=O)[C@H](C)N)[C@@H](C)O)C(C)C)C(C)C)C(C)C)C(=O)N[C@@H](C)C(=O)N[C@@H](C)C(=O)N[C@H](C(=O)O)C(C)C [Spot A13]

binding result [1]: binds
B1: DVL1 20-mer peptide, residues 650-669, printed on the SPOT array (spot A13) (peptide, UniProt O14640-1 650-669, looked up)
peptide: AYTVVGGPPGGPPVRELAAV
notes: source: synthetic peptide, synthesized directly on a modified cellulose membrane with a polyethylglycol linker (SPOT)

Kd [2]: 22.3 µM
B2: FITC-labelled DVL1 peptide, residues 650-669 (peptide, UniProt O14640-1 650-669, looked up)
peptide: {FITC}-AYTVVGGPPGGPPVRELAAV
notes: source: synthetic peptide (Tufts University Core Services), purified

B3: DVL1 WT: full-length HA-tagged wild-type DVL1 expressed in cells (protein)
chain: MAETKIIYHMDEEETPYLVKLPVAPERVTLADFKNVLSNRPVHAYKFFFKSMDQDFGVVKEEIFDDNAKLPCFNGRVVSWLVLAEGAHSDAGSQGTDSHTDLPPPLERTGGIGDSRPPSFHPNVASSRDGMDNETGTESMVSHRRERARRRNREEAARTNGHPRGDRRRDVGLPPDSASTALSSELESSSFVDSDEDGSTSRLSSSTEQSTSSRLIRKHKRRRRKQRLRQADRASSFSSITDSTMSLNIVTVTLNMERHHFLGISIVGQSNDRGDGGIYIGSIMKGGAVAADGRIEPGDMLLQVNDVNFENMSNDDAVRVLREIVSQTGPISLTVAKCWDPTPRSYFTVPRADPVRPIDPAAWLSHTAALTGALPRYGTSPCSSAVTRTSSSSLTSSVPGAPQLEEAPLTVKSDMSAVVRVMQLPDSGLEIRDRMWLKITIANAVIGADVVDWLYTHVEGFKERREARKYASSLLKHGFLRHTVNKITFSEQCYYVFGDLCSNLATLNLNSGSSGTSDQDTLAPLPHPAAPWPLGQGYPYQYPGPPPCFPPAYQDPGFSYGSGSTGSQQSEGSKSSGSTRSSRRAPGREKERRAAGAGGSGSESDHTAPSGVGSSWRERPAGQLSRGSSPRSQASATAPGLPPPHPTTKAYTVVGGPPGGPPVRELAAVPPELTGSRQSFQKAMGNPCEFFVDIM
modifications: left off: HA, N-terminal, kept
notes: full-length HA-tagged wild-type DVL1 expressed in cells
binding of DVL1 to KLHL12 (immunoprecipitation) [3]: bound robustly
binding of DVL1 to KLHL12 (immunoprecipitation) ([3]; listed as Wild-type (WT) DVL1): bound robustly to KLHL12
DVL1 protein level / stability (full-length KLHL12): striking reduction in the DVL1 protein level

B4: DVL3 (Zhao et al.): DVL3, KLHL12 binding by NMR in a parallel study by Zhao et al. (protein, UniProt Q92997 1-716, looked up)
Segment polarity protein …: MGETKIIYHLDGQETPYLVKLPLPAERVTLADFKGVLQRPSYKFFFKSMDDDFGVVKEEISDDNAKLPCFNGRVVSWLVSAEGSHPDPAPFCADNPSELPPPMERTGGIGDSRPPSFHPHAGGGSQENLDNDTETDSLVSAQRERPRRRDGPEHATRLNGTAKGERRREPGGYDSSSTLMSSELETTSFFDSDEDDSTSRFSSSTEQSSASRLMRRHKRRRRKQKVSRIERSSSFSSITDSTMSLNIITVTLNMEKYNFLGISIVGQSNERGDGGIYIGSIMKGGAVAADGRIEPGDMLLQVNEINFENMSNDDAVRVLREIVHKPGPITLTVAKCWDPSPRGCFTLPRSEPIRPIDPAAWVSHTAAMTGTFPAYGMSPSLSTITSTSSSITSSIPDTERLDDFHLSIHSDMAAIVKAMASPESGLEVRDRMWLKITIPNAFIGSDVVDWLYHNVEGFTDRREARKYASNLLKAGFIRHTVNKITFSEQCYYIFGDLCGNMANLSLHDHDGSSGASDQDTLAPLPHPGAAPWPMAFPYQYPPPPHPYNPHPGFPELGYSYGGGSASSQHSEGSRSSGSNRSGSDRRKEKDPKAGDSKSGGSGSESDHTTRSSLRGPRERAPSERSGPAASEHSHRSHHSLASSLRSHHTHPSYGPPGVPPLYGPPMLMMPPPPAAMGPPGAPPGRDLASVPPELTASRQSFRMAMGNPSEFFVDVM
binding to KLHL12 by NMR (KLHL12): confirmed the binding
